{"source": "patent CN1930187A", "binders": {"B1": {"name": "SC-EGFRvIII-XG1-139 (antibody, human IgG1, V domains shown)", "VH": "EVQVLESGGGLVQPGGSLRLSCAASGFTFSSYAMSWVRQAPGKGLEWVSAISGSGGSTNYADSVKGRFTISRDNSKNTLYLQMNSLRAEDTAVYYCAGSSGWSEYWGQGTLVTVSS", "VL": "DIQMTQSPSSLSASVGDRVTITCRASQGIRNNLAWYQQKPGKAPKRLIYAASNLQSGVPSRFTGSGSGTEFTLIVSSLQPEDFATYYCLQHHSYPLTSGGGTKVEIK"}, "B2": {"name": "AB-EGFRvIII-XG1-095 (antibody, human IgG1, V domains shown)", "VH": "QVQLQESGPFLVKPSQTLSLTCTVSGGSISSGGYYWSWIRQHPGKGLEWIGFIYYRGNTYYNPSLKSRVTISVDTSKNQFSLKLSSVTAADTAVYYCARDGYCSRTGCYGGWFDPWGQGTLVTVSP", "VL": "DIVMTQTPLSSPVTLGQPASISCRSSQSLIHTDGNIYLSWLQQRPGQPPRLLIYKISNRFSGVPDRFSGSGAGTDFTLKISRVEAEDVGVYYCMQGTQFPITFGQGTRLEIK"}, "B3": {"name": "SC-EGFRvIII-XG1-123/124 (antibody, human IgG1, V domains shown)", "VH": "QVQLVESGGGVVQPGRSLRLSCAASGFTLSSYGMHWVRQAPGKGLEWVAVMSYDGSKEDYADSVKGRFTISRDNSENTLYLQMNSLRAEDTAVYYCVSEGYCSSRSCYKYYYYGMDVWGQGTTVTVSS", "VL": "DIVMTQSPLSLPVTPGEPASISCRSSQSLLYRNGNNYLDWYLQKPGQSPQLLIYLGSNRASGVPDRFSGSGSGTDFTLNISRVEAEDVGHYYCMQALQTPRTFGQGTKVEIK"}, "B4": {"name": "SC-EGFRvIII-XG1-250 (antibody, human IgG1, V domains shown)", "VH": "B1 VH with V2G, V4L, L11W, G16E, M83V, A88V", "VL": "DIQMTQSPSSLSASVGDSVTITCRTSQGIRKNLGWYQQKPGKAPKRLIYAASSLQSGVPSRFSGSGSGTEFTLTISRLQPEDFATYYCLQHHSYPLTFGGGTRVEIR"}, "B5": {"name": "SC-EGFRvIII-XG1-211 (antibody, human IgG1, V domains shown)", "VH": "B3 VH with A23V, M51T, E58K, V64A, E76K, R105S", "VL": "B3 VL with K44R, N79K, H90V"}, "B6": {"name": "SC-EGFRvIII-XG2-170 (antibody, human IgG1, V domains shown)", "VH": "QVQLQQSGPGLVKPSQTLSLTCAISGDSVSSNNAAWNWIRQSPARGLEWLGRTYYRSKWYNDYVVSVKSRITINPDTSKNQFSLQLNSVTPEDTAVYYCVRATAFDYWGQGTLVTVSS", "VL": "AIVLTQTPLSSPVTLGQPASISCRSSQSLVHRDGNTYLSWLQQRPGQPPRLLIYKISNRFSGVPDRFSGSGAGTDFTLKISRVEPDDVGVYYCMHTTQLPWTFGQGTKVEIK"}, "B7": {"name": "SC-EGFRvIII-XG2-150 (antibody, human IgG1, V domains shown)", "VH": "QVQLQQSGPGLVKPSQTLSLTCAISGDSVSSYSSAWNWIRQSPSRGLEWLGRAYHRSRWYYEYAVSVKSRINITPDTSKNQFSLQLNSVTPEDTAVYYCARGSRFDYWGQGTLVTVSS", "VL": "B6 VL with A1D, L4M, P85A, D86E, V90I, Y92F, L99F, K108R"}, "B8": {"name": "SC-EGFRvIII-XG1-318 (antibody, human IgG1, V domains shown)", "VH": "B3 VH with A23V, M51T, E58K, E76K, S103D, R105S", "VL": "B3 VL with K44R, N79K, H90V"}, "B9": {"name": "SC-EGFRvIII-XG1-333 (antibody, human IgG1, V domains shown)", "VH": "B3 VH with A23V, P41L, M51T, E58K, E76K, S103D, R105T", "VL": "B3 VL with K44R, N79K, H90V"}, "B10": {"name": "SC-EGFRvIII-XG1-342 (antibody, human IgG1, V domains shown)", "VH": "B3 VH with A23V, M51T, E58K, E76K, S103D, R105T", "VL": "B3 VL with K44R, N79K, H90V"}}, "note": "Numbering of substitutions follows the chain as printed."}
{"molecular_target": "T1, Pep-3, NH2-…-OH (MW 1590 Da) (human)", "T1 sequence (peptide)": "LEEKKGNYVVTDHG", "experiment": "SPR (Biacore 2000), mAb immobilised, pep-3 injected", "units": {"Kd": "nM", "koff": "s⁻¹", "kon": "M⁻¹ s⁻¹"}}
{"binder": "B1", "Kd": 290, "koff": 0.00298, "kon": 10300}
{"binder": "B2", "Kd": 66, "koff": 0.0099, "kon": 149000}
{"molecular_target": "T1, Pep-3, NH2-…-OH (MW 1590 Da) (human)", "experiment": "SPR (Biacore 2000), mAb immobilised, pep-3 injected, 1:1 model", "units": {"koff": "s⁻¹", "kon": "M⁻¹ s⁻¹"}}
{"binder": "B1", "koff": 0.00298, "kon": 10300}
{"binder": "B2", "koff": 0.00993, "kon": 149000}
{"molecular_target": "EGFRvIII-rabbit Fc fusion protein (EGFRvIII-RbFc) (human; rabbit) (UniProt P00533)", "experiment": "ELISA, transfection supernatant titrated on EGFRvIII-Rab Ig Fc coat"}
{"binder": "B3", "titre, antigen binding (抗原结合) (titre (1:x dilution))": "> 64"}
{"binder": "B4", "titre, antigen binding (抗原结合) (titre (1:x dilution))": "> 64"}
{"binder": "B1", "titre, antigen binding (抗原结合) (titre (1:x dilution))": "> 64"}
{"binder": "B5", "titre, antigen binding (抗原结合) (titre (1:x dilution))": "> 64"}
{"binder": "B6", "titre, antigen binding (抗原结合) (titre (1:x dilution))": "> 64"}
{"binder": "B7", "titre, antigen binding (抗原结合) (titre (1:x dilution))": "> 64"}
{"binder": "B8", "titre, antigen binding (抗原结合) (titre (1:x dilution))": 64}
{"binder": "B9", "titre, antigen binding (抗原结合) (titre (1:x dilution))": "> 64"}
{"binder": "B10", "titre, antigen binding (抗原结合) (titre (1:x dilution))": "> 64"}
